In US20210228738A1:

Columns and labels:
[1] = target: rhesus macaque IgG (NHP plasma)
[2] = target: total IgG in human serum samples and pooled human plasma
[3] = target: hamster IgG (pooled hamster plasma)

B1: immunoglobulin G-degrading enzyme of Streptococcus pyogenes (IdeS) (protein)
chain: DSFSANQEIRYSEVTPYHVTSVWTKGVTPPANFTQGEDVFHAPYVANQGWYDITKTFNGKDDLLCGAATAGNMLHWWFDQNKDQIKRYLEEHPEKQKINFNGEQMFDVKEAIDTKNHQLDSKLFEYFKEKAFPYLSTKHLGVFPDHVIDMFINGYRLSLTNHGPTPVKEGSKDPRGGIFDAVFTRGDQSKLLTSRHDFKEKNLKEISDLIKKELTEGKALGLSHTYANVRINHVINLWGADFDSNGNLKAIYVTDSDSNASIGMKKYFVGVNSAGKVAISAKEIKEDNIGAQVLGLFTLSTGQDSWNQTN
- cleavage of IgG, non-reducing SDS-PAGE and Coomassie stain [1]: In the NHP samples, IgG was similarly cleaved in all NAb titer groups
- cleavage of IgG, non-reducing SDS-PAGE and Coomassie Blue staining [2]: IdeS was effective to cleave the IgG in the pooled hamster plasma and pooled human plasma in vitro
- cleavage of IgG, non-reducing SDS-PAGE and Coomassie stain [2]: the lowest dose of IdeS cleaved all total IgG (~150 kD) to liberate the Fc fragment (~25 kD)
- cleavage of IgG, non-reducing SDS-PAGE and Coomassie Blue staining [3]: IdeS was effective to cleave the IgG in the pooled hamster plasma and pooled human plasma in vitro
